The supplement of paper PMC7877785
± gives the uncertainty stated by the source.

Experiment: self-splicing fitness, log relative to wild type (ln ratio); higher = more splicing; Tetrahymena group I intron in knt gene, E. coli kanamycin selection, DiMSum; sequences stand for … in CUCUCU…GGAGGGAAAAGUUAUCAGGCAUGCACCUGGUAGCUAGUCUUUAAACCAAUAGAUUGCAUCGGUUUAAAAGGCAAGACCGUCAAAUUGCGGGAAAGGGGUCAACAGCCGUUCAGUACCAAGUCUCAGGGGAAACUUUGAGAUGGCCUUGCAAAGGGUAUGGUAAUAAGCUGACGGACAUGGUCCUAACCACGCAGCCAAGUCCUAAGUCAACAGAUCUUCUGUUGAUAUGGAUGCAGUUCACAGACUAAAUGUCGGUCGGGGAAGAUGUAUUCUUCUCAUAAGAUAUAGUCGGACCUCUCCUUAAUGGGAGCUAGCGGAUGAAGUGAUGCAACACUGGAGCCGCUGGGAACUAAUUUGUAUGCGAAAGUAUAUUGAUUAGUUUUGGAGUACUCGUGGUCG
In short: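 Pooled colonies went to amplicon sequencing on an Illumina HiSeq 2500 after six replicate transformations. The plates were LB agar with 100 μg/mL carbenicillin, 50 μM IPTG and 0.2% rhamnose, with or without 25 μg/mL kanamycin, incubated overnight at 37°C or 30°C. The E. coli BL21(DE3) library had all eight P1ex-region intron nucleotides randomised, the intron placed in the knt kanamycin-resistance gene on pET-22b(+). DiMSum fitness is the error-weighted combination of replicate fold changes, kanamycin against none, normalised to wild type.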

| Sequence | self-splicing fitness (ln) (30 °C) | self-splicing fitness (ln) (37 °C) |
| --- | --- | --- |
| ACCUAGCAAUAUUACGGCAC | -0.933 ± 0.062 | -0.492 ± 0.07 |
| UGGCAGCAAUAUUACGUAUU | -2.73 ± 0.12 | -1.27 ± 0.11 |
| GUUAAGCAAUAUUACGUCGU | -0.93 ± 0.078 | -0.441 ± 0.081 |
| UAAGAGCAAUAUUACGCGAG | -3.96 ± 0.21 | -1.85 ± 0.17 |
| UGAAAGCAAUAUUACGUAGA | -1.88 ± 0.097 | -1.56 ± 0.15 |
| GCAUAGCAAUAUUACGGGCC |  | -1.97 ± 0.27 |
| AGCGAGCAAUAUUACGCGUU | -3.19 ± 0.27 | -2.79 ± 0.32 |
| AUAUAGCAAUAUUACGGAUG | -3.03 ± 0.25 | -2.15 ± 0.28 |
| GUAAAGCAAUAUUACGAAGU | -1.47 ± 0.077 | -0.327 ± 0.098 |
| GAUGAGCAAUAUUACGGACG |  | -1.49 ± 0.26 |
| UGUGAGCAAUAUUACGCUAU |  | -1.9 ± 0.3 |
| GUCGAGCAAUAUUACGCCCC | -1.19 ± 0.37 | -1.01 ± 0.31 |
| CCCAAGCAAUAUUACGCGGG | -3.8 ± 0.17 | -2.45 ± 0.18 |
| GCCGAGCAAUAUUACGGACG | -2.44 ± 0.18 | -0.841 ± 0.2 |
| GAUUAGCAAUAUUACGUCAA | -2.6 ± 0.41 | -0.886 ± 0.22 |
| UUUUAGCAAUAUUACGGCCC |  | -1.14 ± 0.42 |
| GAAGAGCAAUAUUACGUAUG | -3.52 ± 0.23 | -2.16 ± 0.17 |
| GCGAAGCAAUAUUACGAGUG | -1.09 ± 0.1 | -2.13 ± 0.12 |
| CUUUAGCAAUAUUACGAGAU | -3.83 ± 0.23 | -2.57 ± 0.22 |
| AAUCAGCAAUAUUACGCAAG | -0.971 ± 0.068 | -0.72 ± 0.087 |
| CGAUAGCAAUAUUACGUUUA |  | -2.57 ± 0.21 |

| Sequence | self-splicing fitness (ln) (30 °C) | self-splicing fitness (ln) (37 °C) |
| --- | --- | --- |
| CUGAAGCAAUAUUACGAGCA | -3.59 ± 0.19 | -2.01 ± 0.2 |
| AGUAAGCAAUAUUACGUGAU | -3.15 ± 0.2 | -2.33 ± 0.2 |
| GUUAAGCAAUAUUACGAAGG | -2.17 ± 0.18 | -1.87 ± 0.28 |
| CCAUAGCAAUAUUACGCUUC |  | -2.24 ± 0.49 |
| AAAAAGCAAUAUUACGUCCG | -1.05 ± 0.11 | -0.195 ± 0.13 |
| CAGCAGCAAUAUUACGGGUU | -4.98 ± 0.26 | -1.6 ± 0.13 |
| CGGAAGCAAUAUUACGCAAC | -1.88 ± 0.29 |  |
| CUUCAGCAAUAUUACGUGAC | -4.76 ± 0.46 | -3.05 ± 0.37 |
| ACGAAGCAAUAUUACGGGUC | -4.49 ± 0.29 | -2.34 ± 0.23 |
| GCACAGCAAUAUUACGUCAA | -0.993 ± 0.079 | -0.565 ± 0.082 |
| UUCUAGCAAUAUUACGGCAU | -1.81 ± 0.16 | -1.58 ± 0.19 |
| ACACAGCAAUAUUACGACCA | -0.337 ± 0.085 | 0.147 ± 0.093 |
| UAUGAGCAAUAUUACGAAUC |  | -1.07 ± 0.26 |
| GAAUAGCAAUAUUACGUAUG | -1.56 ± 0.12 | -1.04 ± 0.18 |
| GACGAGCAAUAUUACGAGUA | -3.81 ± 0.39 | -3.26 ± 0.37 |
| GGACAGCAAUAUUACGGGUG | -2.51 ± 0.097 | -1.64 ± 0.1 |
| AUGAAGCAAUAUUACGCUAG | -0.164 ± 0.07 | 0.337 ± 0.086 |
| AGAUAGCAAUAUUACGGAAC |  | -0.911 ± 0.3 |
| UUGAAGCAAUAUUACGCCGA | 0.633 ± 0.2 | 0.737 ± 0.25 |
| AAGCAGCAAUAUUACGCCUC |  | -1.22 ± 0.4 |
| GACCAGCAAUAUUACGCCUU | -0.277 ± 0.07 | 0.293 ± 0.087 |
